Where two headings read alike, the source gives them in different places.

Experiment [1] addresses CAT-2200 lambda light chain S176E_Y178E (L1), FLAG-tagged. Briefly: LCCA, SPR of light-chain tags.
In experiment [2] the target is CAT-2200 lambda light chain V133L_S176D_Y178E (L1), FLAG-tagged. Put plainly: LCCA, SPR of light-chain tags.
The target of experiment [3] is Pertuzumab kappa light chain S131K_V133G_S176R_T178A (L2), HA-tagged. Briefly: LCCA, SPR of light-chain tags.
The target in experiment [4] is Pertuzumab kappa light chain S131R_V133G_S176R_T178A (L2), HA-tagged. Briefly: LCCA, SPR of light-chain tags.
Experiment [5] has as its target Pertuzumab kappa light chain S131K_V133G_S176R_T178A (L2), HA-tagged. Put plainly: LCCA, SPR of light-chain tags. The source holds these as a separate data set.
Experiment [6] addresses Pertuzumab kappa light chain S131R_V133G_S176R_T178A (L2), HA-tagged. Put plainly: LCCA, SPR of light-chain tags. This is another data set of the same source.
For experiment [7], the target named is CAT-2200 lambda light chain S176E_Y178E (L1), FLAG-tagged. Put plainly: LCCA, SPR of light-chain tags. This is another data set of the same source.
The target of experiment [8] is CAT-2200 lambda light chain V133L_S176D_Y178E (L1), FLAG-tagged. Put plainly: LCCA, SPR of light-chain tags. This is another data set of the same source.
Experiment [9] concerns the target Pertuzumab kappa light chain V133G_S176D_T178E. Briefly: LCCA, SPR.
Experiment [10] has as its target Pertuzumab kappa light chain V133G_S176D_T180E. Put plainly: LCCA, SPR.
Experiment [11] addresses CAT-2200 lambda light chain E124Q_T131K. Briefly: LCCA, SPR.
The target of experiment [12] is CAT-2200 lambda light chain E124Q_T131R. Briefly: LCCA, SPR.
Experiment [13] concerns the target Pertuzumab kappa light chain V133G_S176D_T178E. Put plainly: LCCA, SPR. This is another data set of the same source.
Experiment [14] addresses Pertuzumab kappa light chain V133G_S176D_T180E. Put plainly: LCCA, SPR. This is another data set of the same source.
The target in experiment [15] is CAT-2200 lambda light chain E124Q_T131R. Briefly: LCCA, SPR. This is another data set of the same source.
Experiment [16] deals with Pertuzumab kappa light chain V133G_L135W_S176D_T180E. Put plainly: LCCA, SPR tag read-out.
Experiment [17] has the same target. Briefly: LCCA, SPR tag read-out. This is another data set of the same source.
In experiment [18] the target is CAT-2200 lambda light chain V133D_Y178T. Put plainly: LCCA, SPR.
Experiment [19] deals with Pertuzumab kappa light chain S176K_T178K. Put plainly: LCCA, SPR.
Experiment [20] addresses Pertuzumab kappa light chain S176K_T178R. Put plainly: LCCA, SPR.
The target in experiment [21] is CAT-2200 lambda light chain V133D_Y178T. Put plainly: LCCA, SPR. The source holds these as a separate data set.
Experiment [22] concerns the target CAT-2200 lambda light chain T131S_V133D_Y178T. Put plainly: LCCA, SPR.
For experiment [23], the target named is CAT-2200 lambda light chain V133D_Y178T. Briefly: LCCA, SPR. This is another data set of the same source.
The target of experiment [24] is Pertuzumab kappa light chain Q124E_V133D. Briefly: LCCA, SPR.
Experiment [25] has the same target. Put plainly: LCCA, SPR. This is another data set of the same source.
Experiment [26] concerns the target Pertuzumab kappa light chain S131K_V133G_S176R (L2), HA-tagged. Put plainly: LCCA, SPR of light-chain tags.
Experiment [27] addresses Pertuzumab kappa light chain S131R_V133G_S176R (L2), HA-tagged. Briefly: LCCA, SPR of light-chain tags.
Experiment [28] concerns the target Pertuzumab kappa light chain S131K_V133G_S176R (L2), HA-tagged. Put plainly: LCCA, SPR of light-chain tags. This is another data set of the same source.
The target of experiment [29] is Pertuzumab kappa light chain S131R_V133G_S176R (L2), HA-tagged. Put plainly: LCCA, SPR of light-chain tags. This is another data set of the same source.
For experiment [30], the target named is Pertuzumab kappa light chain S131K_V133G_S176R (L2), HA-tagged. Put plainly: LCCA, SPR of light-chain tags. The source holds these as a separate data set.
Experiment [31] concerns the target Pertuzumab kappa light chain S131R_V133G_S176R (L2), HA-tagged. Put plainly: LCCA, SPR of light-chain tags. The source holds these as a separate data set.
For experiment [32], the target named is Pertuzumab kappa light chain V133D_Q160E. Briefly: LCCA, SPR.
In experiment [33] the target is Pertuzumab kappa light chain V133D. Put plainly: LCCA, SPR.
Experiment [34] addresses CAT-2200 lambda light chain T131K_V133S. Briefly: LCCA, SPR.
Experiment [35] deals with Pertuzumab kappa light chain Q124E_V133D_L135W. Put plainly: LCCA, SPR tag read-out.
The target of experiment [36] is CAT-2200 lambda light chain E124Q_T131K_V133S. Put plainly: LCCA, SPR tag read-out.
Experiment [37] has as its target CAT-2200 lambda light chain T131K_V133S. Put plainly: LCCA, SPR. The source holds these as a separate data set.
Experiment [38] has as its target Pertuzumab kappa light chain S131R_V133T_L135K_T178S. Briefly: LCCA, SPR.
Experiment [39] deals with CAT-2200 lambda light chain S176A_Y178W (L1), FLAG-tagged. Briefly: LCCA, SPR of light-chain tags.
Experiment [40] deals with Pertuzumab kappa light chain S176A_T178A (L2), HA-tagged. Put plainly: LCCA, SPR of light-chain tags.
Experiment [41] addresses CAT-2200 lambda light chain E124Q_T131K. Put plainly: LCCA, SPR. This is another data set of the same source.
In experiment [42] the target is CAT-2200 lambda light chain E124Q_T131R. Briefly: LCCA, SPR. This is another data set of the same source.
Experiment [43] concerns the target Pertuzumab kappa light chain S131K_S176A_T178S. Briefly: LCCA, SPR.
Experiment [44] deals with Pertuzumab kappa light chain S131K_T178S. Put plainly: LCCA, SPR.
The target of experiment [45] is Pertuzumab kappa light chain S131K_S176A_T178S. Put plainly: LCCA, SPR. The source holds these as a separate data set.
Experiment [46] has as its target Pertuzumab kappa light chain S131K_T178S. Put plainly: LCCA, SPR. This is another data set of the same source.
Experiment [47] has as its target Pertuzumab kappa light chain Q124R_Q160K_T178R (L2), HA-tagged. Put plainly: LCCA, SPR of light-chain tags.
For experiment [48], the target named is Pertuzumab kappa light chain Q124R_T178R (L2), HA-tagged. Put plainly: LCCA, SPR of light-chain tags.
The target of experiment [49] is Pertuzumab kappa light chain Q124R_Q160K_T178R (L2), HA-tagged. Put plainly: LCCA, SPR of light-chain tags. This is another data set of the same source.
Experiment [50] concerns the target Pertuzumab kappa light chain Q124R_T178R (L2), HA-tagged. Briefly: LCCA, SPR of light-chain tags. This is another data set of the same source.
The target of experiment [51] is CAT-2200 lambda light chain K129T_V133D. Put plainly: LCCA, SPR.
Experiment [52] has as its target Pertuzumab kappa light chain Q124K_V133A_T178R. Put plainly: LCCA, SPR.

Take “Pertuzumab Fab heavy chain L124E_K145T_Q179E_S188W (H2)”: the H2L2:H2L1 normalized median ratio (H2L1 share) is 15% in experiment [1], 12% in experiment [2], 11% in experiment [7] and 8% in [8]. For the same substance, the H2L2:H2L1 normalized median ratio, H2L2 share in experiment [3] is 85%; in experiment [4] it was 89%; in experiment [5], 88%; in experiment [6], 92%. For the same substance, the H2L2:H2L1 normalized median scalar value ln(r1/f1) in experiment [3] came out at 1.77; in experiment [4], 2.13; in experiment [5] it was 1.98; in experiment [6] it was 2.4.
Consider Pertuzumab Fab heavy chain L124R_Q179K, for which the H2L2:H2L1 normalized median scalar value ln(r1/f1) turned out to be 0.69 in [9], 0.97 in [10], 0.77 in experiment [13] and 0.95 in experiment [14]. For the same substance, the H2L2:H2L1 normalized median ratio in experiment [10] was 73%; in experiment [11] it was 28%; in [12] it was 27%; in [14], 72%; in experiment [15], 33%. For the same substance, the H2L2:H2L1 median scalar value in [16] was -0.52 ln(ratio); in experiment [17], -0.41 ln(ratio).
Take “Pertuzumab Fab heavy chain K145T_V177D_S188D”: the H2L2:H2L1 normalized median ratio in experiment [18] is 16%; in [19], 84%. The values for the H2L2:H2L1 normalized median scalar value ln(r1/f1) in experiment [19] and in experiment [20] were 1.68 and 1.5, respectively.
As to CAT-2200 Fab heavy chain S186K_S188T, the H1L1:H1L2 normalized median scalar value ln(r1/f1) in experiment [18] is 0.91; in experiment [21], 1.84; in [22], -0.34; in [23], 0.54.
In the case of Pertuzumab Fab heavy chain L143K, the H2L2:H2L1 normalized median ratio in [24] was determined as 91%; in experiment [11], 8%; in [12], 9%; in experiment [25], 92%. Further, the H2L2:H2L1 normalized median scalar value ln(r1/f1) in experiment [24] is 2.3; in experiment [25], 2.48.
“Pertuzumab Fab heavy chain L124E_K145T_Q179E (H2)”: the H2L2:H2L1 normalized median scalar value ln(r1/f1) stood at 2.21 in experiment [26]; 2.51 in experiment [27]; 2.94 in [28]; 2.85 in [29]; 2.41 in experiment [30]; 2.42 in experiment [31].
With Pertuzumab Fab heavy chain L143I_S186K, the H2L2:H2L1 normalized median scalar value ln(r1/f1) amounted to 1.5 in experiment [32] and 0.92 in experiment [33]. The H2L2:H2L1 normalized median ratio in experiment [33] was 72%; in [34], 28%; in experiment [35] it was 84%; in experiment [36], 16%. The H2L2:H2L1 median scalar value in experiment [35] is 1.69 ln(ratio).
Turning to “CAT-2200 Fab heavy chain L143D_K145T_Q179E”, the H1L1:H1L2 normalized median scalar value ln(r1/f1) was 0.41 in [34] and 0.58 in experiment [37].
Substance “Pertuzumab Fab heavy chain L124E_L143E_K145T” had an H2L2:H2L1 normalized median scalar value ln(r1/f1) in [38] of 0.62.
With “Pertuzumab Fab heavy chain S186L_S188W (H2)”, the H2L2:H2L1 normalized median ratio (H2L1 share) in experiment [39] came out at 33%. Also, in [40], the H2L2:H2L1 normalized median ratio, H2L2 share was found to be 67% and the H2L2:H2L1 normalized median scalar value ln(r1/f1) was 0.7.
As to “CAT-2200 Fab heavy chain L143E_K145T_Q179E”, the H1L1:H1L2 normalized median scalar value ln(r1/f1) was -0.04 in [11]; 0.28 in [12]; 3.04 in experiment [41]; 2.87 in experiment [15]; 1.65 in experiment [42].
As to Pertuzumab Fab heavy chain L143T_S188D, the H2L2:H2L1 normalized median scalar value ln(r1/f1) in experiment [43] is 1.51; in experiment [44], 0.84; in experiment [45], 0.15; in [46] it was -0.25. The H2L2:H2L1 normalized median ratio was determined as 54% in [45] and 46% in experiment [23].
As to “Pertuzumab Fab heavy chain L143E_K145T_Q179E (H2)”, the H2L2:H2L1 normalized median scalar value ln(r1/f1) amounted to 2.62 in [47], 2.22 in [48], 3.21 in experiment [49] and 3.16 in experiment [50].
As to “Pertuzumab Fab heavy chain L124W_L143E_K145T_Q179E”, the H2L2:H2L1 normalized median ratio in experiment [51] came out at 8%. Also, in experiment [52], the H2L2:H2L1 normalized median ratio was 92% and the H2L2:H2L1 normalized median scalar value ln(r1/f1) was found to be 2.51.

The values above are taken from US20190338048A1.
